# Patent US20190077849A1 (US Dept. of Health and Human Services, published 2019)
# Values joined by “and” are separate entries in the source; they are usually repeats but may differ in a detail not shown here. Equal entries are not always repeated. Where two headings read alike, the source gives them in different places.
# How the values were obtained:
# [1] = target: HIV-1 Env of KER2008.12.SG3 pseudovirus (clade A) (HIV-1); assay: cell-based or functional assay
# [2] = target: HIV-1 Env of TH966.8.SG3 pseudovirus (clade AE) (HIV-1); assay: cell-based or functional assay
# [3] = target: HIV-1 Env of PVO.04.SG3 pseudovirus (clade B) (HIV-1); assay: cell-based or functional assay
# [4] = target: HIV-1 Env of CNE31.SG3 pseudovirus (clade C) (HIV-1); assay: cell-based or functional assay
# [5] = target: HIV-1 Env of ZM106.9.SG3 pseudovirus (clade C) (HIV-1); assay: cell-based or functional assay
# [6] = target: HIV-1 Env of KER2008.12.SG3 pseudovirus (clade A) (HIV-1); assay: cell-based or functional assay; remark: listed apart in the source
# [7] = target: T1, HIV-1 Env of 6095.V1.C10.SG3 pseudovirus (clade ACD) (HIV-1); assay: cell-based or functional assay
# [8] = target: HIV-1 Env of TH966.8.SG3 pseudovirus (clade AE) (HIV-1); assay: cell-based or functional assay; remark: listed apart in the source
# [9] = target: HIV-1 Env of 6101.10.SG3 pseudovirus (clade B) (HIV-1); assay: cell-based or functional assay
# [10] = target: HIV-1 Env of PVO.04.SG3 pseudovirus (clade B) (HIV-1); assay: cell-based or functional assay; remark: listed apart in the source
# [11] = target: T2, HIV-1 Env of YU2.DG.SG3 pseudovirus (clade B) (HIV-1, UniProt P35961 32-843); assay: cell-based or functional assay
# [12] = target: HIV-1 Env of CNE31.SG3 pseudovirus (clade C) (HIV-1); assay: cell-based or functional assay; remark: listed apart in the source
# [13] = target: HIV-1 Env of ZM106.9.SG3 pseudovirus (clade C) (HIV-1); assay: cell-based or functional assay; remark: listed apart in the source
# [14] = target: HIV-1 Env of ZM215.8.SG3 pseudovirus (clade C) (HIV-1); assay: cell-based or functional assay
# [15] = target: HIV-1 Env of KER2008.12.SG3 pseudovirus (clade A) (HIV-1); assay: cell-based or functional assay; remark: listed apart in the source
# [16] = target: T1, HIV-1 Env of 6095.V1.C10.SG3 …; assay: cell-based or functional assay; remark: listed apart in the source
# [17] = target: HIV-1 Env of TH966.8.SG3 pseudovirus (clade AE) (HIV-1); assay: cell-based or functional assay; remark: listed apart in the source
# [18] = target: HIV-1 Env of 6101.10.SG3 pseudovirus (clade B) (HIV-1); assay: cell-based or functional assay; remark: listed apart in the source
# [19] = target: HIV-1 Env of PVO.04.SG3 pseudovirus (clade B) (HIV-1); assay: cell-based or functional assay; remark: listed apart in the source
# [20] = target: T2, HIV-1 Env of YU2.DG.SG3 pseudovirus …; assay: cell-based or functional assay; remark: listed apart in the source
# [21] = target: HIV-1 Env of CNE31.SG3 pseudovirus (clade C) (HIV-1); assay: cell-based or functional assay; remark: listed apart in the source
# [22] = target: HIV-1 Env of ZM106.9.SG3 pseudovirus (clade C) (HIV-1); assay: cell-based or functional assay; remark: listed apart in the source
# [23] = target: HIV-1 Env of ZM215.8.SG3 pseudovirus (clade C) (HIV-1); assay: cell-based or functional assay; remark: listed apart in the source
# MPER peptide = target: T3, MPER peptide (HIV-1); assay: MPER peptide binding assay (method not given)
# T3 construct: also called gp41 MPER peptide
binder,measurement,setting,value
"10E8 variant 4 (H6-511-4mut VH + rL3-6mut VL) (antibody, V domains shown) VH: EVRLVESGGGLVKPGGSLRLSCSASGFDFDNAWMTWVRQPPGKGLEWVGRITGPGEGWSVDYAESVKGRFTISRDNTKNTLYLEMNNVRTEDTGYYFCARTGKYYDFWSGYPPGEEYFQDWGQGTLVIVSS VL: ASELTQDPAVSVALKQTVTITCRGDSLRSHYASWYQKKPGQAPVLLFYGKNNRPSGIPDRFSGSASGNRASLTITGAQAEDEADYYCSSRDKSGSRLSVFGGGTKLTVL","IC50, pseudovirus neutralization",[1],> 50 µg/mL
same,"IC50, pseudovirus neutralization",[2],0.036 µg/mL and 0.021 µg/mL
same,"IC50, pseudovirus neutralization",[3],2.39 µg/mL and 1.13 µg/mL
same,"IC50, pseudovirus neutralization",[4],1.16 µg/mL
same,"IC50, pseudovirus neutralization",[5],> 50 µg/mL
same,"IC50, pseudovirus neutralization",[6],> 50 µg/mL
same,"IC80, pseudovirus neutralization",[6],> 50 µg/mL
same,"IC50, pseudovirus neutralization",[7],0.004 µg/mL
same,"IC80, pseudovirus neutralization",[7],0.021 µg/mL
same,"IC50, pseudovirus neutralization",[8],0.026 µg/mL
same,"IC80, pseudovirus neutralization",[8],0.169 µg/mL
same,"IC50, pseudovirus neutralization",[9],0.011 µg/mL
same,"IC80, pseudovirus neutralization",[9],0.09 µg/mL
same,"IC50, pseudovirus neutralization",[10],0.894 µg/mL
same,"IC80, pseudovirus neutralization",[10],8 µg/mL
same,"IC50, pseudovirus neutralization",[11],0.668 µg/mL
same,"IC80, pseudovirus neutralization",[11],5.32 µg/mL
same,"IC50, pseudovirus neutralization",[12],1.74 µg/mL
same,"IC80, pseudovirus neutralization",[12],4.85 µg/mL
same,"IC50, pseudovirus neutralization",[13],> 50 µg/mL
same,"IC80, pseudovirus neutralization",[13],> 50 µg/mL
same,"IC50, pseudovirus neutralization",[14],0.042 µg/mL
same,"IC80, pseudovirus neutralization",[14],0.326 µg/mL
same,"IC50, pseudovirus neutralization",[15],> 50 µg/mL
same,"IC80, pseudovirus neutralization",[15],> 50 µg/mL
same,"IC50, pseudovirus neutralization",[16],0.004 µg/mL
same,"IC80, pseudovirus neutralization",[16],0.015 µg/mL
same,"IC50, pseudovirus neutralization",[17],0.056 µg/mL
same,"IC80, pseudovirus neutralization",[17],0.291 µg/mL
same,"IC50, pseudovirus neutralization",[18],0.052 µg/mL
same,"IC80, pseudovirus neutralization",[18],0.263 µg/mL
same,"IC50, pseudovirus neutralization",[19],3.07 µg/mL
same,"IC80, pseudovirus neutralization",[19],11.9 µg/mL
same,"IC50, pseudovirus neutralization",[20],1.49 µg/mL
same,"IC80, pseudovirus neutralization",[20],6.33 µg/mL
same,"IC50, pseudovirus neutralization",[21],1.32 µg/mL
same,"IC80, pseudovirus neutralization",[21],4.04 µg/mL
same,"IC50, pseudovirus neutralization",[22],> 50 µg/mL
same,"IC80, pseudovirus neutralization",[22],> 50 µg/mL
same,"IC50, pseudovirus neutralization",[23],0.122 µg/mL
same,"IC80, pseudovirus neutralization",[23],0.502 µg/mL
"10E8v4 S100cW-DS (antibody, V domains shown) VH: EVRLVESGGGLVKPGGSLRLSCSASGFDFDNAWMTWVRQPPGKGLEWVGRITGPGEGWSVDYAESVKGRFTISRDNTKNTLYLEMNNVRTEDTGYYFCARTGKYYDFWWGCPPGEEYFQDWGQGTLVIVSS VL: ASELTQDPAVSVALKQTVTITCRGDSLRCHYASWYQKKPGQAPVLLFYGKNNRPSGIPDRFSGSASGNRASLTITGAQAEDEADYYCSSRDKSGSRLSVFGGGTKLTVL","IC50, pseudovirus neutralization",[6],> 50 µg/mL
same,"IC80, pseudovirus neutralization",[6],> 50 µg/mL
same,"IC50, pseudovirus neutralization",[7],0.002 µg/mL
same,"IC80, pseudovirus neutralization",[7],0.013 µg/mL
same,"IC50, pseudovirus neutralization",[8],0.019 µg/mL
same,"IC80, pseudovirus neutralization",[8],0.092 µg/mL
same,"IC50, pseudovirus neutralization",[9],1.22 µg/mL
same,"IC80, pseudovirus neutralization",[9],10.1 µg/mL
same,"IC50, pseudovirus neutralization",[10],0.331 µg/mL
same,"IC80, pseudovirus neutralization",[10],3.67 µg/mL
same,"IC50, pseudovirus neutralization",[11],0.213 µg/mL
same,"IC80, pseudovirus neutralization",[11],2.2 µg/mL
same,"IC50, pseudovirus neutralization",[12],0.806 µg/mL
same,"IC80, pseudovirus neutralization",[12],2.93 µg/mL
same,"IC50, pseudovirus neutralization",[13],> 50 µg/mL
same,"IC80, pseudovirus neutralization",[13],> 50 µg/mL
same,"IC50, pseudovirus neutralization",[14],0.037 µg/mL
same,"IC80, pseudovirus neutralization",[14],0.245 µg/mL
"10E8v4-DS (VH Y100eC and VL S30C substitutions) (antibody, V domains shown) VH: EVRLVESGGGLVKPGGSLRLSCSASGFDFDNAWMTWVRQPPGKGLEWVGRITGPGEGWSVDYAESVKGRFTISRDNTKNTLYLEMNNVRTEDTGYYFCARTGKYYDFWSGCPPGEEYFQDWGQGTLVIVSS VL: ASELTQDPAVSVALKQTVTITCRGDSLRCHYASWYQKKPGQAPVLLFYGKNNRPSGIPDRFSGSASGNRASLTITGAQAEDEADYYCSSRDKSGSRLSVFGGGTKLTVL","IC50, pseudovirus neutralization",[6],> 50 µg/mL
same,"IC80, pseudovirus neutralization",[6],> 50 µg/mL
same,"IC50, pseudovirus neutralization",[7],0.002 µg/mL
same,"IC80, pseudovirus neutralization",[7],0.017 µg/mL
same,"IC50, pseudovirus neutralization",[8],0.092 µg/mL
same,"IC80, pseudovirus neutralization",[8],0.345 µg/mL
same,"IC50, pseudovirus neutralization",[9],2.41 µg/mL
same,"IC80, pseudovirus neutralization",[9],22.2 µg/mL
same,"IC50, pseudovirus neutralization",[10],2.53 µg/mL
same,"IC80, pseudovirus neutralization",[10],10.1 µg/mL
same,"IC50, pseudovirus neutralization",[11],0.275 µg/mL
same,"IC80, pseudovirus neutralization",[11],2.44 µg/mL
same,"IC50, pseudovirus neutralization",[12],2.28 µg/mL
same,"IC80, pseudovirus neutralization",[12],6.48 µg/mL
same,"IC50, pseudovirus neutralization",[13],> 50 µg/mL
same,"IC80, pseudovirus neutralization",[13],> 50 µg/mL
same,"IC50, pseudovirus neutralization",[14],0.208 µg/mL
same,"IC80, pseudovirus neutralization",[14],0.798 µg/mL
same,fold tighter binding than 10E8v4,MPER peptide,2 fold
